Here are results for 1 substance from PMC5437253.

Some targets named below: N384AzK-mPEG (human); L309AzK (human); M252AzK-CR110 (human); M252AzK-mPEG (human); K288AzK (human); L309AzK-CR110 (human); S254AzK-CR110 (human); N286AzK-mPEG (human); N384AzK-CR110 (human); Q311AzK-mPEG (human); N434AzK (human); K248AzK (human); N384AzK (human); K288AzK-CR110 (human); Q311AzK (human); S254AzK (human); M252AzK (human); L309AzK-mPEG (human); Q311AzK-CR110 (human); K248AzK-mPEG (human).

Holding throughout (assay): SPR; Biacore 3000; antibodies immobilised on a CM5 chip by amine coupling at ~3000 RU; huFcRn flowed at 5 μl/min for 50 min, 19.5 nM to 10 μM, in PBS pH 5.8 with 5 mM EDTA and 0.05% Tween 20; steady-state fit
In general terms: SPR reads the build-up and loss of mass on a sensor chip optically.

For assay [1], the target named is wild-type antibody (human).

“Recombinant human FcRn (from UniProt P55899 24-297; P61769 21-119) (receptor)”: the equilibrium dissociation constant (Kd) with N384AzK-mPEG (human) amounted to 756 nM; in the assay with L309AzK (human), 437 nM; with M252AzK-CR110 (human) it was 2060 nM; in the assay with M252AzK-mPEG (human), 3580 nM; with K288AzK (human), 418 nM; with L309AzK-CR110 (human) it was 2040 nM. The Kd with S254AzK-CR110 (human) is 2870 nM; with N286AzK-mPEG (human) it was 2830 nM; with N384AzK-CR110 (human), 702 nM; with Q311AzK-mPEG (human), 3870 nM; in the assay with N434AzK (human), 734 nM; with K248AzK (human), 378 nM. For the same substance, the Kd is 565 nM with N384AzK (human); 538 nM in assay [1]; 558 nM in the assay with K288AzK-CR110 (human); 323 nM with Q311AzK (human); 465 nM with S254AzK (human); 249 nM in the assay with M252AzK (human). Moreover, the values for the dissociation constant Kd in the assay with L309AzK-mPEG (human), with Q311AzK-CR110 (human) and with K248AzK-mPEG (human) were 3270 nM, 2050 nM and 907 nM, respectively.

What is called Kd is the constant that tells how readily two partners part at equilibrium. Low readings indicate higher affinity, high ones lower affinity.
